The record followed here is PMC12599289, “Kinetic and homology model analysis of diaminopimelate decarboxylase from Cyanothece sp. ATCC 51142: unveiling a key enzyme in lysine biosynthesis” (Bioscience Reports, 2025).

Substrate in the data set: NC(CCCC(N)C(=O)O)C(=O)O
In words: purified protein. The format is biochemical, Crocosphaera subtropica. Particulars: 0.1 mM PLP, 20 mM Tris-HCl pH 8.0, methods say room temperature, abstract says 30°C, DAP 0.5-15 mM.

B1: CsDAPDC (Crocosphaera subtropica ATCC 51142) (protein)
chain: MIATPTKTPHTGQDYLKIKINATDSTKRSPNQSLLPLTANINAHDHLEIGGCDLQTLVEQFGSPLYILDEMTLRTACRQYRDNFQTYYKGESQVIYASKAWSCLAVVGVIARENLGFDVVSGGELYTTQKALTQLGYSCQEIAKKIYFHGNNKSEAELKEAIKVGCTIIVDNWLELQTLAQLGNDTPNLTIPILIRLTPGIECHTHEYIRTGHLDSKFGFDPNQLEAVFTYISQQTSLDCRGLHAHIGSQIFERQPHQDLAGVLVEWLKIGREYGLNLSELNIGGGLGICYTEEDDPPSIEEWVKAVSEAVMKACQRCEIDLPKLIAEPGRSLIGSACVTAYTVGSRKEIPELRTYIAVDGGMSDNPRPITYQSLYRVALANRMSAEISETVTIAGKHCESGDIVIKDAQLPQTHPGDILVIMGTGAYNYSMASNYNRLPRPAAVMVNQGEANLIVRRETYDDLIRQDCLPQRLLP
notes: tag removal not mentioned; dimer only from homology model
Take B1: the Michaelis-Menten constant (Km) was 1.20 ± 0.17 mM and the kcat was determined as 1.68 s⁻¹.

As usually defined, the Km is the concentration of substrate that gives half-maximal velocity. The kcat is the maximal rate divided by the concentration of active sites.
